Consider 8 molecules from patent US7189689.

The target in the assay is T1, lecithin:cholesterol acyltransferase (LCAT), purified from human plasma (human, UniProt P04180 25-440).
T1 sequence (looked up): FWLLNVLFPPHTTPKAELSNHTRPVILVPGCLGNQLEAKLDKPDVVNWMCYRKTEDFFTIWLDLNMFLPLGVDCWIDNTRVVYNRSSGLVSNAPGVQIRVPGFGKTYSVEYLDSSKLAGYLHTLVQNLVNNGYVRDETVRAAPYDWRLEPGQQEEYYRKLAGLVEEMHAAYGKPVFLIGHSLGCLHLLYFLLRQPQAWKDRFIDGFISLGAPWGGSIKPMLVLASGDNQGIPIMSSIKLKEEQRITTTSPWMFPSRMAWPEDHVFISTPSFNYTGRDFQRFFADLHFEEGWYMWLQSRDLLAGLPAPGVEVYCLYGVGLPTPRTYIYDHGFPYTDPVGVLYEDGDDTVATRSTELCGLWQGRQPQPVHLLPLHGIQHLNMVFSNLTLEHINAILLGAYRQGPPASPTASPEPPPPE
Nature of the assay: cell-based or functional assay.

For the molecule DWLKAFYDKVFEKFKEFF [peptide 241], the “ACTIVITY (%) LCAT” value was 8%. For EWLKAEYEKVLEKLKELF [peptide 246], the “ACTIVITY (%) LCAT” value worked out at 4%. The value for EWLEAFYKKVLEKLKELF [peptide 242] was 7%. Take DWFKAFYDKFFEKFKEFF [peptide 243]: the “ACTIVITY (%) LCAT” value was found to be 5%. Turning to EWLKAFYEKVLEKLKELF [peptide 244], the “ACTIVITY (%) LCAT” value turned out to be 5%. EWLKAEYEKVEEKLKELF [peptide 245]: the “ACTIVITY (%) LCAT” value worked out at 4%. As for EWLKAFYKKVLEKLKELF [peptide 247], the “ACTIVITY (%) LCAT” value was 3%. With DWFKAFYDKVFEKFKEFF [peptide 237], the “ACTIVITY (%) LCAT” value came out at 11%.
